Laboratory results: patent publication WO2025083273A1 (dated 2025)
Substitutions are numbered along the chain they refer to. Names may count otherwise.

T1: human DR3 (TNFRSF25) expressed on cells (human, UniProt Q93038 25-417)
T1 sequence: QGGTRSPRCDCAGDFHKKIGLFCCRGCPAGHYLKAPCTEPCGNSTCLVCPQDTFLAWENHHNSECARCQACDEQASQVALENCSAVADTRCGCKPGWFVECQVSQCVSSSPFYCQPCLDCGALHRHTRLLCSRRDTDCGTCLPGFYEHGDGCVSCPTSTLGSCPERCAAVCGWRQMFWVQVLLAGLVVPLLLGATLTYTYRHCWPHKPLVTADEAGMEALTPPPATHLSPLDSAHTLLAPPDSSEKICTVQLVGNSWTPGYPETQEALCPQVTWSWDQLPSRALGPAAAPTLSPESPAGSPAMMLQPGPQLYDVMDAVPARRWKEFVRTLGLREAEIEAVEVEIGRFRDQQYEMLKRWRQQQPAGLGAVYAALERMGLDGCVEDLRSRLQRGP

T2: DR3-8i (human)
T2 construct: also called purified monomeric DR3-8i antigen protein
T2 chain: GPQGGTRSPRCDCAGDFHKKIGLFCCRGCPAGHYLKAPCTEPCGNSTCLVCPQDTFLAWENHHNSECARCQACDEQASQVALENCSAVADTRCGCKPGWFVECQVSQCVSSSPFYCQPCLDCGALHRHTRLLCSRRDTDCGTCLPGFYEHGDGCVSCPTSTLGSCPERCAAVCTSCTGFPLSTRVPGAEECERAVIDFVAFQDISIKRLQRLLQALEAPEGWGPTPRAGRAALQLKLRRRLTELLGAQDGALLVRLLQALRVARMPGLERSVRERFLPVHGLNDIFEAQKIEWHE

T3: recombinant human DR3/TNFRSF25 Fc chimera (human, UniProt Q93038 25-199)
T3 construct: extracellular domain; bought (R&D Systems); also called DR3-Fc; hDR3Fc chimera; not shown: human IgG1 Fc
T3 sequence (looked up): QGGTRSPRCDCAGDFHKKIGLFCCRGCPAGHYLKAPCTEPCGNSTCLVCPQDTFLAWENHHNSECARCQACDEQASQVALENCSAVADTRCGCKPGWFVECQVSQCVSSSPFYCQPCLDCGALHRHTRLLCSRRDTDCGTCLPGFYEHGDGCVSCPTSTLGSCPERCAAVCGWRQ

B1: VHg1/VLg11 (antibody, human IgG1, V domains shown)
VH: QVQLVQSGGGLVQPGGSLRLSCAASGFTFSSYAMSWVRQAPGKGLEWVSTISDGDSYSYFPDSVKDRFTISRDNSKNTLYLQMNSLRAEDTSVYYCARDRIYGSVQYYAMDYWGQGTLVTVSS
VL: DIVMTQSPDSLAVSLGERATINCRASESVEFSGTSLMQWYQQKPGQPPKLLIYAASNVESGVPDRFSGSGSGTDFTLTISSLQAEDVAVYYCQQSRKLPYTFGQGTKLEIK
notes: human IgG1; also called H1L11; VHg1/VL11
B2: VHg6/VLg13 (antibody, human IgG1, V domains shown)
VH: B1 VH with V5Q, S49A, S75A, K76R, T78S, S92A, Q115R
VL: DIQMTQSPSSLSASVGDRVTITCRASESVEFSGTSLMQWYQQKPGKAPKLLIYAASNVESGVPSRFSGSGSGTDFTFTISSLQPEDIATYYCQQSRKLPYTFGQGTKLEIK
notes: human IgG1
B3: VHg6/VLg11 (antibody, human IgG1, V domains shown)
VH: B1 VH with V5Q, S49A, S75A, K76R, T78S, S92A, Q115R
VL: B1 VL
notes: human IgG1
B4: B9-hIgG1 (antibody, V domains shown)
VH: EVQLVESGGGLVKPGGSLKLSCSASGFTFSSYAMSWVRQTPEKRLEWVATISDGDSYSYFPDSVKDRFIISRDNAKNNLFLQMSHLRSEDTAMYYCTRDRIYGSVQYYAMDYWGQGTSVTVSS
VL: DIVLTQSPASLAVSLGQRATISCRASESVEFSGTSLMQWYQQRPGLPPKLLIYAASNVESGVPARFSGSGSGTDFSLNIHPVEEDDIAMYFCQQSRKLPYTFGGGTKLEIN
notes: chimeric: mouse B9 variable regions, human IgG1; also called B9-H1; Non-humanised B9
B5: F10 mIgG1 (antibody, V domains shown)
VH: EVQLVESGGDLVKPGGSLKLSCAASGFSFSAYAMSWVRQTPEKILEWVATISDGDPYTYYPDNVKGRFTISRDNARNNLYLQMSHLRSEDTAIYYCTRERNDYDQYYTMDYWGQGTSVTVSS
VL: DIVLTQSPASLVVSLGQRATISCRASKSVSTSGYNYLHWYQQTPGQPPKLLIYLASNLESGVPARFSGSGSGTDFTLNIHPVEEEDVATYYCQHSRELPWTFGRGTKLEIKR
notes: parental mouse IgG1; also called F10-M1; murine anti-hDR3 mAb clone F10
B6: B9 mIgG2A (antibody, V domains shown)
VH: B4 VH
VL: B4 VL
notes: parental mouse IgG2a, kappa; also called B9-M2A; murine anti-hDR3 mAb clone B9

biological target: T1, human DR3 (TNFRSF25) expressed on cells; experiment: cell-based or functional assay

Row | EC50 (pM), DR3 Jurkat reporter | Signal (FLU) | Binder
1 | 331 pM | 2.47e+06 FLU | B1
2 | 141 pM | 2.75e+06 FLU | B2
3 | 130 pM | 2.45e+06 FLU | B3
4 | 457 pM |  | B4

Biological target: T2, DR3-8i
Experiment: BLI, IgG captured on protein A, DR3-8i in solution; Average

Row | Kd | Binder
5 | 160 pM | B2
6 | 145 pM | B3
7 | 259 pM | B4

Biological target: T2, DR3-8i
Experiment: BLI, IgG captured on protein A, DR3-8i in solution; Experiment 1

Row | Kd | Binder
8 | 1 pM | B1
9 | 225 pM | B2
10 | 190 pM | B3
11 | 327 pM | B4

Biological target: T2, DR3-8i
Experiment: BLI, IgG captured on protein A, DR3-8i in solution; Experiment 2

Row | Kd | Binder
12 | 95.6 pM | B2
13 | 99.9 pM | B3
14 | 190 pM | B4

biological target: T3, recombinant human DR3/TNFRSF25 Fc …; experiment: SPR (Biacore), His-tagged hDR3-Fc captured by anti-His mAb, bivalent fit; apparent KD

Row | Kd | Binder
15 | 1070 pM | B5
16 | 561 pM | B6

biological target: T3, recombinant human DR3/TNFRSF25 Fc …; experiment: HTRF epitope competition on DR3-Fc; competitor DyLight 650 labelled B9 IgG; mean ± SD of three experiments

Row | IC50 | Binder
17 | 447 pM | B1
18 | 348 pM | B2
19 | 287 pM | B3
20 | 252 pM | B4
